Assay results reported in patent publication US20100190698A1 (PHYLOGICA, published 2010).

What follows are binders tested against c-Jun (Jun dimers as AP-1 moieties, endogenous in K562/AP1-Luc cells) (UniProt P05412 1-331) (assay: cell-based or functional assay).
c-Jun (Jun dimers as AP-1 moieties, endogenous in K562/AP1-Luc cells), sequence (P05412 whole entry): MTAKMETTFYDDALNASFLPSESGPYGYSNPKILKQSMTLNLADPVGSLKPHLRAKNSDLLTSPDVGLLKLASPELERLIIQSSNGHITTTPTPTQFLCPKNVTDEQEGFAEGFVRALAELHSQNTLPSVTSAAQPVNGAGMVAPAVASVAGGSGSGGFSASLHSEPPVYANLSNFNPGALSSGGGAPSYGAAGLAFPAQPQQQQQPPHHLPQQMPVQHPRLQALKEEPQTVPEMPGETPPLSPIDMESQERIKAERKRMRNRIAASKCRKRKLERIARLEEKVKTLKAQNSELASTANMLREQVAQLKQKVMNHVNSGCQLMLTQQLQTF
RSDYKDDDDKVSINQEHHRLLPL [PYC41] was tested, and the “AP-1 reporter activity (luciferase, K562/AP1-Luc cells), of the level observed for the control sample” value (“AP-1 reporter activity” below) was ~48 % of control. For RSDYKDDDDKGLQGRRQPGQQPQGRWSGRALPAHR [PYC38/39], the “AP-1 reporter activity” value was ~47 % of control. With RSDYKDDDDKGLQGRRRQGYQSIKP [PYC36] the “AP-1 reporter activity” value was ~44 % of control. In the case of RSDYKDDDDKAYQSIRSGGIESSSKRER [PYC35], the “AP-1 reporter activity” value is reported as ~35 % of control.
